In publication PMC4643400 (Human mutation, 2015):

Biological target: T1, Trm7-A26P-PT (S. cerevisiae, UniProt P38238 1-310, A26P)
T1 sequence (looked up): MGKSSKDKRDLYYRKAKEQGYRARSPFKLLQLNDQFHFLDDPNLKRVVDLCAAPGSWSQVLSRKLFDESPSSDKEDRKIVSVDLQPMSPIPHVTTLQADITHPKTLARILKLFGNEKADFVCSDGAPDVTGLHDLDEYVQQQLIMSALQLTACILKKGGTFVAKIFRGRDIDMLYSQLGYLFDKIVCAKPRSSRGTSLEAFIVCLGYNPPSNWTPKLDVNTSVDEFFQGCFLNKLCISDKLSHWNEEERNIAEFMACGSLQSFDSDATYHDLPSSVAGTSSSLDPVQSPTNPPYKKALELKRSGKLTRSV
Experiment: pull-down

B1: Trm734-9myc (natural protein, S. cerevisiae, UniProt Q08924 1-1013, looked up)
chain: MKDLSHYGPALCVKFYNDYVLAGYGPFIHVYDYHSATLINKCRLFHYNKVHGLSLSSEGKILAYGARSVTIVELEDVLKKESLVDFERINSDWITGATFSFDNLQIYLLTCYNKVLICDLNCEVLFRKSLGGERSILYSGIIKVFGPDKVYVNAGTVMGGVIIWDLFSETKIHNLLGHEGSIFYVNLSNNGRYVASCSDDRSIRLWDLETGKQLSVGWSHTARIWNLMFFDNDSKLISVSEDCTCRVWNIIESRENVAELSISNVYEVHLIKSIWGVDVKDDEMIAVTSGNDGRLKLIDLLQLKRHGDEETSFSLDDIAKQCGDIFEKNESIKGFQWFSFGVIAITSLGKILKYSDVTKQWKLLLTNEKFNSYPITNGIQTQNIAVFSNNKSDILLIKFSKDSADIIETEEFHLDELSKTNNCLVTEYDDDSFLLTLQSPNPREKFVCLEISLQNLKIKSKHCFNKPENFSSSCLTSFRNHILVGSRFSTLVIYNLLDESEEPFIIRRLSPGDTTTSIEFVEDKDNSAVFSVTNRDGYYVFIELTKNSLEEGPYRLSYKVLHSNKMMKGFLEGAFFNSKGEYITYGFKSSLFYLYNETNCYELASEVCGGSHRLWNLAKITDGHVLMYIKASRFHLRKIYNSIVPETLENGVHGREIRDISICPVSNTNTNDNFKDGHIFCTASEDTTIKLGYFNNRTGKVQNFWTQRKHVSGLQRCQFINHKLMISSSAREELFLWELNDKYNKRPYMTIRQALPVSTNNSDLRIMDFDVKFISQSGDFLLVTVYSDSTIKIWHYRENQNKFDLIMQGRYKTCCLFNVVFIALKEELLVVISPTDGHLVVYNITEYVPFSVDPISGDLVDHKLDATISNLPAPVAQLPVHQSGVKSLDYVANATRTSATILTGGDDNGLGLSNLKLDDSNKVTLKTSDFIAAAASSTITSGMLINGGKEVITTSVDQVIRAWEITAGKLSLVDKKRTTVADTGSLEIISNDEDADSEKTLLIGGVGLSIWKK
fold of Trm734-9myc pulled down against Trm7-MORF from a CEN plasmid: ~10 fold
